Results on 1 molecule are retold here after patent US20160368965A1 (IMMATICS BIOTECHNOLOGIES, published 2016).

The assay deals with T1, HLA-A*02:01 (human).
T1 construct: the tested peptide takes its place; also called peptide-receptive MHC molecules; MHC class I
The experiment in a line: UV-ligand exchange, anti-β2m ELISA; grade of peptide exchange yield. The text has this: Candidate peptides for T cell based therapies according to the present invention were further tested for their MHC binding capacity (affinity). The individual peptide-MHC complexes were produced by UV-ligand exchange, where a UV-sensitive peptide is cleaved upon UV-irradiation, and exchanged with the peptide of interest as analyzed. Only peptide candidates that can effectively bind and stabilize the peptide-receptive MHC molecules prevent dissociation of the MHC complexes. To determine the yield of the exchange reaction, an ELISA was performed based on the detection of the light chain (β2m) of stabilized MHC complexes. The assay was performed as generally described in Rodenko et al. (Rodenko et al., 2006).
96 well MAXISorp plates (NUNC) were coated over night with 2 ug/ml streptavidin in PBS at room temperature, washed 4× and blocked for 1h at 37° C. in 2% BSA containing blocking buffer. Refolded HLA-A*02:01/MLA-001 monomers served as standards, covering the range of 15-500 ng/ml. Peptide-MHC monomers of the UV-exchange reaction were diluted 100 fold in blocking buffer. Samples were incubated for 1 h at 37° C., washed four times, incubated with 2 ug/ml HRP conjugated anti-β2m for 1h at 37° C., washed again and detected with TMB solution that is stopped with […]. Absorption was measured at 450 nm. […]
In general terms: In an ELISA, binding on a coated surface is turned into a signal by an enzyme label.

Molecule SLTEQVHSL [SLTEQVHSL (SEQ ID NO: 141)] registered a peptide exchange yield of 50 to 75%.
